# Measurements reported in the supplement of paper PMC9732359.
# ± gives the uncertainty stated by the source.
# Experiment: protein stability index of a GFP-peptide fusion (yeast GPS) (PSI 1-4); higher = more stable; sorted into four equal gates, so the index is relative within each strain
# Method in brief: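 The protein stability index of a peptide was calculated by multiplying its read frequency in each gate by that gate's number and adding the products. The peptides were tiled 17-residue stretches of yeast proteins, fused downstream of GFP on a Cherry-expressing plasmid and carried in yeast as a pooled library. Mid-log cultures in leucine-free medium were sorted into four equal gates by GFP/Cherry ratio, and each gate's plasmids were PCR-amplified and Illumina-sequenced.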
Sequence,protein stability index (doa10∆),protein stability index (pdr5∆),protein stability index (san1∆),protein stability index (ubr1∆)
DFILSLLHHVSELDSND [YJL039C/NUP192],1.93 ± 0.071,1.88 ± 0.064,1.42 ± 0.11,2.4 ± 0.054
DFKNEESLSEEHASLLV [MED8],3.35 ± 0.11,3.12 ± 0.16,3.08 ± 0.06,3.26 ± 0.063
DFLLSDWNKRFSHLAGG [BRR2],2.71 ± 0.053,2.82 ± 0.055,2.96 ± 0.065,2.85 ± 0.048
DFPELKPYKQVKQIAPA [FAS2],2.29 ± 0.066,2.46 ± 0.069,2.58 ± 0.07,2.66 ± 0.057
DFSLRYISNLLYGVTIC [REC8],2.13 ± 0.039,1.71 ± 0.041,1.83 ± 0.074,1.5 ± 0.027
DGAGGDNEVQRTMLELI [RPT1],3.6 ± 0.16,2.95 ± 0.13,3.44 ± 0.11,3.36 ± 0.066
DGIFSSKTDNIEDPNLS [YMR153W/NUP53],2.59 ± 0.086,2.2 ± 0.092,2.69 ± 0.096,2.55 ± 0.095
DGIHYILNHIGQLTGIY [PRP8],1.67 ± 0.065,1.55 ± 0.073,1.14 ± 0.12,1.67 ± 0.078
DGKLEPSTRSNFILEVF [YJL039C/NUP192],1.63 ± 0.081,1.61 ± 0.067,1.92 ± 0.14,1.33 ± 0.069
DGKLIDISGTMSGGGNH [SMC4],3.42 ± 0.11,3.4 ± 0.11,3.54 ± 0.075,3.6 ± 0.088
DGTAQLSNNKTDEEEQL [YJR042W/NUP85],2.77 ± 0.25,3.16 ± 0.14,3.27 ± 0.15,3.18 ± 0.098
DGTGVRVIVAGTLDINP [FAS1],2.36 ± 0.068,2.87 ± 0.071,2.99 ± 0.065,2.59 ± 0.061
DGVTHALYPQEARLRNL [RPB2],3.22 ± 0.27,3.06 ± 0.22,3.23 ± 0.13,
DHASIRRGYQVYREVCA [CYT1],1.87 ± 0.06,1.5 ± 0.052,1.27 ± 0.09,1.71 ± 0.036
DHFIHLRNLHMKRMVAQ [SNF12],2.78 ± 0.063,2.52 ± 0.083,2.77 ± 0.062,2.45 ± 0.047
DHLKLVSLFSNLRHERN [YIL149C/MLP2],2.41 ± 0.092,2.67 ± 0.19,2.5 ± 0.26,2.44 ± 0.097
DHSWFLLIGCKLDQDDE [CSI1],1.54 ± 0.11,1.95 ± 0.096,3.03 ± 0.12,2.34 ± 0.064
DIDDELNELETLIKKKQ [SMC2],3.31 ± 0.16,3.11 ± 0.1,2.99 ± 0.078,3.24 ± 0.078
DIDDILKKGEQKTQELN [ISW2],3.31 ± 0.22,3.21 ± 0.1,3.44 ± 0.099,3.56 ± 0.092
DIEEGPITSKSWEEGTR [MCD1],,2.92 ± 0.19,2.99 ± 0.15,
DIEQLEYSRDCFCEDHC [RPB3],3.1 ± 0.064,2.54 ± 0.052,2.92 ± 0.066,2.61 ± 0.065
DINVELFPVAAQDSLTV [RPB8],1.33 ± 0.24,1.82 ± 0.11,1.16 ± 0.23,1.94 ± 0.069
DIPFFPSSEKPNIRTMS [SSN2],,,3.1 ± 0.22,
DISAAIVHSSDGHLQFL [DLS1],2.92 ± 0.056,2.85 ± 0.068,3.01 ± 0.048,2.8 ± 0.078
DISAMQPVNPKPFLKGL [SMX3],3.12 ± 0.067,3.18 ± 0.068,3.2 ± 0.051,3.22 ± 0.053
DITDGKDYHTLANNVES [RPS18A],3.21 ± 0.052,3.31 ± 0.048,3.22 ± 0.042,3.22 ± 0.04
DITSDQLLQRLNDMNTE [SMC3],3.46 ± 0.16,,3.24 ± 0.13,3.17 ± 0.12

Sequence,protein stability index (doa10∆),protein stability index (pdr5∆),protein stability index (san1∆),protein stability index (ubr1∆)
DIVPYFLKHNGEEDAVD [RPN1],3.26 ± 0.12,3.27 ± 0.18,2.95 ± 0.17,3.22 ± 0.094
DIYFKLKKLEKEYELLT [RPT3],2.74 ± 0.074,2.51 ± 0.081,2.29 ± 0.14,1.98 ± 0.057
DKDAFIPKLKPAPINSL [SNU114],2.81 ± 0.069,2.88 ± 0.063,2.83 ± 0.05,2.84 ± 0.054
DKDVKAKYETSILEHSG [FAS2],3.36 ± 0.058,3.33 ± 0.065,3.23 ± 0.052,3.37 ± 0.064
DKGAVGPNNFIWPAEDA [MED4],3.51 ± 0.25,3.43 ± 0.24,,3.23 ± 0.15
DKINKYSLIRETNGYDP [SNF5],1.51 ± 0.086,1.62 ± 0.12,1.92 ± 0.2,1.23 ± 0.19
DKLKDIVGQTSRTVTPA [ITC1],3.22 ± 0.059,3.13 ± 0.046,3.19 ± 0.047,2.96 ± 0.052
DKLLKRLKEKGSRVLIF [ISW2],1.35 ± 0.042,1.61 ± 0.059,1.36 ± 0.1,1.36 ± 0.052
DKNSGVKSEVDVQVDAE [ITC1],2.1 ± 0.064,2.15 ± 0.073,1.79 ± 0.12,2.97 ± 0.065
DKPLLKAGRAFHKYRLK [RPL2A],2.96 ± 0.085,3.07 ± 0.058,2.16 ± 0.059,2.04 ± 0.061
DKQARKQRTKKEDKSEA [SNF2],3.64 ± 0.14,3.54 ± 0.13,3.25 ± 0.077,3.29 ± 0.11
DLCSSVLSQFERSYPSE [ROX3],2.58 ± 0.094,3.42 ± 0.17,2.98 ± 0.074,3.17 ± 0.086
DLEEAYATQVKTDNTVD [RPT3],2.19 ± 0.18,2.58 ± 0.091,2.47 ± 0.14,2.79 ± 0.1
DLFTHLWNQWLKLNTSL [SRP68],1.76 ± 0.048,2.05 ± 0.047,2.27 ± 0.066,1.83 ± 0.038
DLIRSESMLHLSIWIKN [IRR1],1.62 ± 0.057,2.01 ± 0.05,1.51 ± 0.098,1.8 ± 0.04
DLISKKTKTSLLPTIKR [RPR2],3.09 ± 0.079,2.58 ± 0.073,2.58 ± 0.086,2.74 ± 0.063
DLKRFVDESLLSTLPAG [QCR2],3.02 ± 0.067,3.23 ± 0.085,2.52 ± 0.099,3 ± 0.051
DLLHPTAASEARKHKLK [RPS27A],2.29 ± 0.1,3.11 ± 0.068,2.53 ± 0.11,3.07 ± 0.072
DLMDEELRKHAQKRVSN [SKI6],3.38 ± 0.16,3.45 ± 0.11,2.8 ± 0.085,3.21 ± 0.077
DLSEKILNDIETLEHNP [BRR2],3.06 ± 0.055,3.21 ± 0.07,3.05 ± 0.055,3.13 ± 0.043
DLSSAASASGAAGAGAA [FAS2],1.78 ± 0.13,1.51 ± 0.11,,1.66 ± 0.19
DMFEMSDEEENNNNKSI [SSN2],,3.19 ± 0.18,3.32 ± 0.17,3.04 ± 0.079
DMLTWVDSNLPDDEKFT [RPC40],2.92 ± 0.074,3.14 ± 0.063,2.56 ± 0.16,3.26 ± 0.074
DNEEASVKLDLQDDEDH [BRN1],2.99 ± 0.1,3.45 ± 0.084,3.05 ± 0.071,3.35 ± 0.097
DNFSPHQNVIIGSNGSG [SMC3],,2.89 ± 0.14,2.78 ± 0.088,3.28 ± 0.079
DNGGTILGIAGEDFAVL [PRE7],3.46 ± 0.099,3.08 ± 0.13,3.34 ± 0.14,3.47 ± 0.052
